According to patent US20240269276A1 (HARBOUR BIOMED SHANGHAI, published 2024):
Positions count from the first letter of the chain named.

B1: PR005867 (antibody, human IgG1, V domains shown)
VH: QVQLVESGGGVVQPGMSLRLSCAASGFTFSSYGMYWVRQAPGKGQEWVAIIWYDGTKKHYADSVKGRFTISRDNSKNTLYLEMNSLRVEDTAVYYCAKNRAIFGVIPDDSDIRGQGTMVTVSS
notes: The HC entry is used
B2: PR006247 (antibody, human IgG1, V domains shown)
VH: B1 VH with T28D, I50S, W52R, D54T, K57E, I102L, D109A
notes: The HC entry is used
B3: PR005869 (antibody, human IgG1, V domains shown)
VH: B1 VH with I102L
notes: The HC entry is used
B4: PR005868 (antibody, human IgG1, V domains shown)
VH: B1 VH with I102L, D109A
notes: The HC entry is used
B5: PR006245 (antibody, human IgG1, V domains shown)
VH: B1 VH with T28D, I50S, W52R, D54T, K57E, I106V, D109A
notes: The HC entry is used
B6: PR003739 (bispecific antibody, human IgG1, kappa, L234A L235A)
heavy: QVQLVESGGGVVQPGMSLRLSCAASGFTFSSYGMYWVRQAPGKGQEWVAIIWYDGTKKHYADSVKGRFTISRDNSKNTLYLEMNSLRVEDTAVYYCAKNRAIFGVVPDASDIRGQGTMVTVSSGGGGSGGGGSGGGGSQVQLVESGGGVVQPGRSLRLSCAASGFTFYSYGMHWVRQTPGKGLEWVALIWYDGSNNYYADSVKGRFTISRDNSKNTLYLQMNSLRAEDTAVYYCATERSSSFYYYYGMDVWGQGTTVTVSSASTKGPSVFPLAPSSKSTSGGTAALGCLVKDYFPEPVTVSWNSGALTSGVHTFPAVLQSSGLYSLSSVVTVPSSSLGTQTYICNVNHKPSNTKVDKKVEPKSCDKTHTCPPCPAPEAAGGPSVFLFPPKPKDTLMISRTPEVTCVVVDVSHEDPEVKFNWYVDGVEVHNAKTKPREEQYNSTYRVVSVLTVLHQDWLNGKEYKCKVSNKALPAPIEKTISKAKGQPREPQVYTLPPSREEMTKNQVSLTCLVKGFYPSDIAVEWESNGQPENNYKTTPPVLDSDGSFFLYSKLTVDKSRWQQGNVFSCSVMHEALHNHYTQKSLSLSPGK
light: DIQLTQSPSFLSTSVGDRVTITCRASQGISSYLAWYQQKPGKAPKLLIYAASTLQSGVPSRFSGSGSGTEFTLTISSLQPEDFATYYCQQLNSYPYTFGQGTELEIKRTVAAPSVFIFPPSDEQLKSGTASVVCLLNNFYPREAKVQWKVDNALQSGNSQESVTEQDSKDSTYSLSSTLTLSKADYEKHKVYACEVTHQGLSSPVTKSFNRGEC
notes: light chain of PR001408; also called CD73×PD-L1 bispecific antibody PR003739
B7: PR004295 (bispecific antibody, human IgG1, kappa, L234A L235A)
heavy: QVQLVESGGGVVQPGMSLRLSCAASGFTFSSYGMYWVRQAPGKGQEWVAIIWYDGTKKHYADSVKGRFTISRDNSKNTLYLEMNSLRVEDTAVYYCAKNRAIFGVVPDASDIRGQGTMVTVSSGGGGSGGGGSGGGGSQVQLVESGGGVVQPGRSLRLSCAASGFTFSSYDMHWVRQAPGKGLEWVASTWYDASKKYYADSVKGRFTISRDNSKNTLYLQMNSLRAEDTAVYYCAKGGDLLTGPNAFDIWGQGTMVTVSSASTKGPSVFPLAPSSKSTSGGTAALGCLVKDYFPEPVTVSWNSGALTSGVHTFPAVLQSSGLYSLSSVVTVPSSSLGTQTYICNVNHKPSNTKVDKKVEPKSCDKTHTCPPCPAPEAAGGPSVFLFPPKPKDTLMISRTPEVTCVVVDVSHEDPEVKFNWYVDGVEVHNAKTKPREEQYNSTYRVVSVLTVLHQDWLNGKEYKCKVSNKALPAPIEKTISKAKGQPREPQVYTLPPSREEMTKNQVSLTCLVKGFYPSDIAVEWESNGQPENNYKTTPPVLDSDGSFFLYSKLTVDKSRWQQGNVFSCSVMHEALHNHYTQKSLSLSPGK
light: DIQMTQSPSTLSASVGDRVTITCRASQSISSWLAWYQQKPGKAPKLLIYKASSLESGVPSRFSGSGSGTEFTLTISSLQPDDFATYYCQQYDNYENTFGQGTKLEIKRTVAAPSVFIFPPSDEQLKSGTASVVCLLNNFYPREAKVQWKVDNALQSGNSQESVTEQDSKDSTYSLSSTLTLSKADYEKHKVYACEVTHQGLSSPVTKSFNRGEC
notes: light chain of PR003836; also called CD73×PD-L1 bispecific antibody PR004295
B8: PR001408 (antibody, human IgG1, kappa, L234A L235A, V domains shown)
VH: QVQLVESGGGVVQPGRSLRLSCAASGFTFYSYGMHWVRQTPGKGLEWVALIWYDGSNNYYADSVKGRFTISRDNSKNTLYLQMNSLRAEDTAVYYCATERSSSFYYYYGMDVWGQGTTVTVSS
VL: DIQLTQSPSFLSTSVGDRVTITCRASQGISSYLAWYQQKPGKAPKLLIYAASTLQSGVPSRFSGSGSGTEFTLTISSLQPEDFATYYCQQLNSYPYTFGQGTELEIKR
notes: Anti-CD73 IgG (human IgG1 constant region, human Ig kappa), PTM removed; also called anti-CD73 antibody PR001408; anti-CD73 H2L2 antibody
B9: PR003836 (antibody, human IgG1, kappa, L234A L235A, V domains shown)
VH: QVQLVESGGGVVQPGRSLRLSCAASGFTFSSYDMHWVRQAPGKGLEWVASTWYDASKKYYADSVKGRFTISRDNSKNTLYLQMNSLRAEDTAVYYCAKGGDLLTGPNAFDIWGQGTMVTVSS
VL: DIQMTQSPSTLSASVGDRVTITCRASQSISSWLAWYQQKPGKAPKLLIYKASSLESGVPSRFSGSGSGTEFTLTISSLQPDDFATYYCQQYDNYENTFGQGTKLEIKR
notes: Anti-CD73 IgG (human IgG1 constant region, human Ig kappa), PTM removed; also called anti-CD73 antibody PR003836; anti-CD73 H2L2 antibody

molecular target: T1, human PD-L1 protein with histidine tag (ACROBiosystems #PD-1-H5258) (human, UniProt Q9NZQ7 19-238); assay: BLI (Octet Red96e); His-tagged human PD-L1 captured on HIS1K sensor, antibody at 60 nM; 1:1 fit
T1 construct: Bought protein; also called His PD-L1; human PD-L1 proteins; not shown: histidine tag
T1 sequence (Q9NZQ7 19-238 limits assumed): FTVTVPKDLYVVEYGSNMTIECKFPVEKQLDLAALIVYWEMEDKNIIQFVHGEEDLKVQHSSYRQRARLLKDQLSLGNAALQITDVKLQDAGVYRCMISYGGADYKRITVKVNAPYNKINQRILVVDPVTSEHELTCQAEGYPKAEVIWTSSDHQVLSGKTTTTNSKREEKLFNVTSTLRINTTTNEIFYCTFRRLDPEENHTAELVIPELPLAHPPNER
Protocol: In this example, affinity determination was performed on the affinity-matured mutants of PR002082 using an Octet Red96e instrument. […] The binding kinetics between the antigen and the antibody was analyzed by the biolayer interferometry (BLI) technique using an Octet molecular interaction analyzer (ForteBio, model: Octet Red96e).
When the affinity of the antigen for the antibody was determined, the rotation speed of the sensor was set at 1000 rpm/min. The 2 HIS1K sensors placed in a column were first equilibrated for 10 min in test buffer, then His PD-L1 was captured with the HIS1K sensor at a capture height of 0.9-1.1 nm, then the HIS1K sensor was equilibrated for 2 min in the test buffer, then the HIS1K sensor was bound to the antigen-binding protein (60 nM and 0 nM) for 3 min, and finally the mixture was dissociated for 15 min. The HIS1K sensor was immersed in a 10 mM glycine solution (pH 1.5) for regeneration to elute the proteins bound to the sensor.
When data analysis was performed using Octet Data Analysis software (Fortebio, version 11.0), the reference signals were subtracted by a single reference mode (reference well), the data were fitted by a “1:1 Local/full fitting” method, and the kinetic parameters of the binding of the antigen to the antibody were calculated to obtain Kₒₙ (1/Ms) values, Kdis (1/s) values and KD (M) values.

Row | Binder | Kd [nM] | koff [s⁻¹] | kon [M⁻¹ s⁻¹]
1 | B1 | 1.85 | 0.000468 | 253000
2 | B2 | 1.18 | 0.000219 | 185000
3 | B3 | 1.09 | 0.000262 | 241000
4 | B4 | 1.92 | 0.000386 | 201000
5 | B5 | 1.09 | 0.000162 | 149000

molecular target: T2, human PD-L1 on CHO-K1 cells overexpressing human PD-L1 (human, UniProt Q9NZQ7 19-290); assay: flow cytometry on CHO-K1 cells overexpressing human PD-L1 (CHO-K1-hPD-L1) [continued) E]
T2 construct: whole, on cells; also called CHO-K1/hPD-L1; CHO-K1-hPD-L1
T2 sequence (Q9NZQ7 19-290): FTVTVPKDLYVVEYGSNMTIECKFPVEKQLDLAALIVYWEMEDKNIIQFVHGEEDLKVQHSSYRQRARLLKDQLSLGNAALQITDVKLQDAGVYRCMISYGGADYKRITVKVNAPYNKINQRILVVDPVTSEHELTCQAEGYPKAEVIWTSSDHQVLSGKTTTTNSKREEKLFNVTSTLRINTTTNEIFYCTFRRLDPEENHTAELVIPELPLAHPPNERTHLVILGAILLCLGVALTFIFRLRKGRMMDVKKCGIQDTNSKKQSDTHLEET
Protocol: (§1) In order to investigate the binding activity of the CD73×PD-L1 bispecific antibody to human CD73 and PD-L1, the binding experiment at the cellular level was performed using CHO-K1 cell strains overexpressing human CD73 or PD-L1 (CHO-K1-hCD73 or CHO-K1-hPD-L1). Briefly, the CHO-K1-hCD73 and CHO-K1-hPD-L1 cells were digested and resuspended in an F-12K complete medium, and the cell density was adjusted to 1×10⁶ cells/mL. The cells were seeded in a 96-well V-bottom plate (Corning, #3894) at 100 μL/well, followed by the addition at 100 μL/well and centrifugation at 500 g at 4° C. for 5 min, and then the supernatant was discarded. Antibodies were 3-fold diluted to a maximum final concentration of 50 nM, and a total of 8 concentrations were set. 100 μL of the diluted antibodies was added to the cells, and the cells were incubated away from light at 4° C for 1 h. Thereafter, the cells in each well were rinsed twice with 100 μL of pre-cooled PBS, and centrifuged at 500 g at 4° C. for 5 min, and then the supernatant was discarded. Then 100 μL of a fluorescent secondary antibody (goat anti-human IgG (H+L) secondary antibody, Alexa Fluor® 488 conjugate, Invitrogen, #A11013, diluted at the ratio of 1:1000) was added to each well. […] Finally, the cells in each well were resuspended in 200 μL of pre-cooled PBS, and the fluorescence signal values were read using a BD FACS CANTOII.

Row | Binder | EC50 [nM]
6 | B6 | 1.66

molecular target: T2, human PD-L1 on CHO-K1 cells …; assay: flow cytometry on CHO-K1 cells overexpressing human PD-L1 (CHO-K1/hPD-L1) [continued) E]
Protocol: (§2) In the example, in order to study the in vitro binding activity of the PD-L1 antigen-binding protein to human/cynomolgus monkey PD-L1, cell-level binding experiments were performed using CHO-K1 cell strains overexpressing human PD-L1 (CHO-K1/hPD-L1, GenScript, M00543) or CHO-K1 cell strains overexpressing cynomolgus monkey PD-L1 (CHO-K1/cynoPD-L1, GenScript, M00573). Briefly, the PD-L1 cells were digested and resuspended in an F-12K complete medium, and the cell density was adjusted to 1×10⁶ cells/mL. The cells were seeded in a 96-well V-bottom plate (Corning, 3894) at 100 μL/well, followed by the addition of the test antigen-binding proteins serially diluted 5-fold with concentrations that were twice the final concentrations at 100 μL/well. The mixtures were well mixed. The highest final concentration of the antigen-binding proteins was 100 nM. A total of 8 concentrations were set. An isotype antibody hIgG1 iso was used as a control. The cells were incubated away from light at 4° C. for 1 h. Thereafter, the cells in each well were rinsed twice with 100 μL of pre-cooled PBS, and centrifuged at 500 g at 4° C. for 5 min, and then the supernatant was discarded. Then 100 μL of a fluorescent secondary antibody (goat anti-human IgG (H+L) secondary antibody, Alexa Fluor 488 conjugate, Invitrogen, A11013, diluted at the ratio of 1:1000) was added to each well. The plate was incubated away from light at 4° C. for 30 min. The cells in each well were then rinsed twice with 200 μL of pre-cooled PBS and centrifuged at 500 g at 4° C. for 5 min, and then the supernatant was discarded. Finally, a pre-cooled PBS was added at 200 μL/well to resuspend the cells. Fluorescence signal values were read using a BD FACS CANTOII. Fluorescence signal values were read using a flow cytometer BD FACS CANTOII or FACS ACEA, and the data were processed and analyzed using FlowJo v10 (FlowJo, LLC) software. The data were processed and analyzed by plotting using GraphPad Prism 8 software, and binding curves, EC50 values and other parameters were acquired through four-parameter nonlinear fitting.

Row | Binder | EC50 [nM] | Maximum MFI [MFI]
7 | B1 | 1.14 | 388000
8 | B3 | 1.13 | 393000
9 | B4 | 1.06 | 393000

molecular target: T2, human PD-L1 on CHO-K1 cells …; assay: flow cytometry on CHO-K1 cells overexpressing human PD-L1 (CHO-K1/hPD-L1) [continued) F]
Protocol: as §2

Row | Binder | EC50 [nM] | Maximum MFI [MFI]
10 | B2 | 1.01 | 410000
11 | B5 | 0.964 | 405000

molecular target: T2, human PD-L1 on CHO-K1 cells …; assay: flow cytometry on CHO-K1 cells overexpressing human PD-L1 (CHO-K1-hPD-L1) [continued) F]
Protocol: as §1

Row | Binder | EC50 [nM]
12 | B7 | 2.17

molecular target: T3, cynomolgus monkey PD-L1 on CHO-K1 cells overexpressing cynomolgus monkey PD-L1 (cynomolgus monkey, UniProt G7PSE7 19-290); assay: flow cytometry on CHO-K1/cynoPD-L1 cells
T3 construct: also called CHO-K1/cynoPD-L1; GenScript M00573
T3 sequence (G7PSE7 entry or part of it limits assumed): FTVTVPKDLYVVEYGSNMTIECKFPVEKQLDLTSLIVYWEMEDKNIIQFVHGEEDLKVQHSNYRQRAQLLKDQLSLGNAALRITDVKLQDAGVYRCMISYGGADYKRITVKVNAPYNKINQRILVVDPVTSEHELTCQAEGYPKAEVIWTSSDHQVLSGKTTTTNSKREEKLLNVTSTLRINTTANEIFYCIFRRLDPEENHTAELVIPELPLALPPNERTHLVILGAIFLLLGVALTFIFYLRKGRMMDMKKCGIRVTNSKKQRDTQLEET
Protocol: as §2

Row | Binder | binding result
13 | B1 | binds
14 | B2 | binds
15 | B3 | binds
16 | B4 | binds
17 | B5 | binds

molecular target: T4, human CD73 on CHO-K1 cells overexpressing human CD73 (human, UniProt P21589 27-549); assay: flow cytometry on CHO-K1 cells overexpressing human CD73 (CHO-K1-hCD73)
T4 construct: whole, on cells; also called CHO-K1-hCD73
T4 sequence (looked up): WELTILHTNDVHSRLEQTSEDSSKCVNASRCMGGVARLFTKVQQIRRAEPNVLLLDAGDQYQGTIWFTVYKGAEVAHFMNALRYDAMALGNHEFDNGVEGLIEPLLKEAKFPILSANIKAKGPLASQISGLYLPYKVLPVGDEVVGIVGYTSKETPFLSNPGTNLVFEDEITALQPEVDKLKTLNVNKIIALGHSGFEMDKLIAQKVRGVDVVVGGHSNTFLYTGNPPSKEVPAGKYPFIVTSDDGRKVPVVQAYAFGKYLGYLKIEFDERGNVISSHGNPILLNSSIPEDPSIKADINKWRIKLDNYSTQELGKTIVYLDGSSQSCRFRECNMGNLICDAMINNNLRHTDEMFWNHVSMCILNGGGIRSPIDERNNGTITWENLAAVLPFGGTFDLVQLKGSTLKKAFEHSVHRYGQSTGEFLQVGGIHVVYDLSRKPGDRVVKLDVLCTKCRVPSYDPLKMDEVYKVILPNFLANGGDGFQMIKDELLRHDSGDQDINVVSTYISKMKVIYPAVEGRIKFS
Protocol: In order to investigate the binding activity of the CD73×PD-L1 bispecific antibody to human CD73 and PD-L1, the binding experiment at the cellular level was performed using CHO-K1 cell strains overexpressing human CD73 or PD-L1 (CHO-K1-hCD73 or CHO-K1-hPD-L1). Briefly, the CHO-K1-hCD73 and CHO-K1-hPD-L1 cells were digested and resuspended in an F-12K complete medium, and the cell density was adjusted to 1×10⁶ cells/mL. The cells were seeded in a 96-well V-bottom plate (Corning, #3894) at 100 μL/well, followed by the addition at 100 μL/well and centrifugation at 500 g at 4° C. for 5 min, and then the supernatant was discarded. Antibodies were 3-fold diluted to a maximum final concentration of 50 nM, and a total of 8 concentrations were set. 100 μL of the diluted antibodies was added to the cells, and the cells were incubated away from light at 4° C for 1 h. Thereafter, the cells in each well were rinsed twice with 100 μL of pre-cooled PBS, and centrifuged at 500 g at 4° C. for 5 min, and then the supernatant was discarded. Then 100 μL of a fluorescent secondary antibody (goat anti-human IgG (H+L) secondary antibody, Alexa Fluor® 488 conjugate, Invitrogen, #A11013, diluted at the ratio of 1:1000) was added to each well. The plate was incubated away from light at 4° C. for 30 min. The cells in each well were then rinsed twice with 200 μL of pre-cooled PBS and centrifuged at 500 g at 4° C. for 5 min, and then the supernatant was discarded. Finally, the cells in each well were resuspended in 200 μL of pre-cooled PBS, and the fluorescence signal values were read using a BD FACS CANTOII.

Row | Binder | EC50 [nM]
18 | B8 | 0.342
19 | B7 | 2.09
20 | B9 | 1.1
21 | B6 | 0.99
